Results as given in IntAct's records for PubMed 14528310.

Biological target: Homer1, Q9Z214-1
Sequence (Q9Z214 whole entry): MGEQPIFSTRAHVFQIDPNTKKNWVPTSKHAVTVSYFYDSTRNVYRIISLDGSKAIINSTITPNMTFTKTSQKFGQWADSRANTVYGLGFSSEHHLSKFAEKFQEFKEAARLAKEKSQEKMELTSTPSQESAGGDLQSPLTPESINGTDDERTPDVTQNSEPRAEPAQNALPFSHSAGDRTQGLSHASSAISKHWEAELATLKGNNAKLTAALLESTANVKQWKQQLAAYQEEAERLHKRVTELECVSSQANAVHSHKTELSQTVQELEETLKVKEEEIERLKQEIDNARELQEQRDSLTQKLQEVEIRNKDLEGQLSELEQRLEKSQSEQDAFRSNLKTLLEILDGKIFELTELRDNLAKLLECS

With “Arf-GAP with GTPase, ANK repeat and PH domain-containing protein 2 (Rattus norvegicus (Rat)), Q8CGU4 P187L” the “effect of a mutation on the interaction” value was “disrupting interaction”.
